From the nanobody polyreactivity screen of Harvey et al. (2022)

Experiment: yeast display, Sf9 membrane polyspecificity reagent, FACS + sequencing; frameworks hold sequencing errors
Procedure, shortened: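 In a synthetic yeast display library (Saccharomyces cerevisiae BJ5465), nanobody expression was induced with galactose for 36–48 hours. FACS gates were set low and high (top ~1%) using anti-HA fluorescence for expression and streptavidin fluorescence for binding of the Sf9 membrane reagent. Each polyreactivity label is drawn from the gate of origin.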

Row | Sequence | polyreactivity (PSR sort gate)
1 | HVQLVESGGGLVQAGGSLRLSCAASGFTFRLYAMGWYRQAPGKERELVAAINWGGGSTRYADSVKGRFTISRDNAKNTVYLQMNSLKPEDTAVYYCAARRFAYYFQYLGGGYWGQGTQVTVSS | high polyreactivity
2 | HVQLVESGGGLVQAGGSLRLSCAASGLIFDWYAMGWYRQAPGKERELVADISYSGGSTNYADSVKGRFTISRDNAKNTVYLQMNSLKPEDTAVYYCAVDYYYPTLTIGYYYWGQGTQVTVSS | low polyreactivity
3 | HVQLVESGGGLVQAGGSLRLSCAASGRIFAPYDMGWYRPAPGNERELVAAISRSGGSTYYADSVKGRFTSSRDNAKNTVYLQMNSLKPEDTAVYYCAASYPGRYWLYRYEYWGQGTQVTVSS | high polyreactivity
4 | HVQLVESGGGLVQAGGSLRLSCAASGRIFFRYAMGWYRQAPGKERELVAAISYSGGSTYYADSVKGRFTISRDNAKNTVYLQMNSLKPEDTAVYYCAAPLLRDLRSPYSYNYWGQGTQVTVSS | low polyreactivity
5 | HVQLVESGGGLVQAGGSLRLSCAASGRIFGVYVMGWYRPAPGKERELVAGISPSGGSTYYADSVKGRFTISRDNAKNTVYLQMNSLKPEDTAVYYCAAVLRIRRPRYGYWGQGTQVTVSS | high polyreactivity
6 | HVQLVESGGGLVQAGGSLRLSCAASGRIFNDYSMGWYRQAPGKERELVAAIRRRGDRTYYADSVKGRFTISRDNAKNTVYLQMNSLKPEDTAVYYCAKSQSAKGGYDYWGQGTQVTVSS | high polyreactivity
7 | HVQLVESGGGLVQAGGSLRLSCAASGRIFWRYAMGWYRQAPGKEREFVADITYSGGSTYYADSVKGRFTISRDNAKNTVYLQMNSLKPEDTAVYYCAAGWVRPWATYKLDYWGQGTQVTVSS | high polyreactivity
8 | HVQLVESGGGLVQAGGSLRLSCAASGRTLGSYAIGWYRQAPGKARELVAAISGGSTNYADSVKGRFTISRDNAKNTVYLQMNRLKPEDTAVYYCAADPYGYLYDSWGQGTQVTVSS | low polyreactivity
9 | HVQLVESGGGLVQAGGSLRLSCAASGSIFEYYAMGWYRQAPGKERELVASISRGTSTNYADSVKGRFTISRDNAKNTVYLQMNSLKPEDTAVYYCNADGWTVVLDTYGSWGQGTQVTVSS | low polyreactivity
10 | HVQLVESGGGLVQAGGSLRLSCAASGSIFLHNTMGWYRQAPGKERELVAVISKRGGSTYYADSVKGRFTISRDNAKNTVYLQMNCLKPEDTAVYYCNKTRSAGHPGVDGSPYYYWGQGTQVTVSS | high polyreactivity
11 | HVQLVESGGGLVQAGGSLRLSCAASGSISHLYTMRWYRQAPGKERELVAAIRYSGGRTDYADSVKGRFTISRDNAKNTVYLQMNSLKPEDTAVYYCAATQLRRWYYHYGLDYWGQGTQVTVSS | high polyreactivity
12 | HVQLVESGGGLVQAGGSLRLSCAASGSTFGENAMGWYRQAPGKERELVAAITWGTNTYYADSVKGRFTISRDNAKNTVYLQMNSLKPEDTAVYYCAAQFQTRGWRYVYWGQGTQVSVSS | low polyreactivity
13 | HVQLVESGGGLVQAGGSLRLSCAASGSTFTLNVMGWYRQAPGKERELVAGISKRGGNTYYADSVKGRFTISRDNAKNTVYLQMNSLKPEDTAVYYCATYSRIFKWEYYYWGQGTQVTVSS | high polyreactivity
14 | HVQLVESGGGLVQAGGSLRLSCAASGSTFTRYVMGWYRQAPGKERELVAAISSGVSTYYADSVKGRFTISRDNAKNSVYLQMNSLKPEDTAVYYCDANRYRAREYKYWGQGTQVTVSS | high polyreactivity
15 | HVQLVESGGGLVQAGGSLRLSFAASGRIFTHNAMGLYRKAPGKERELVAAITSGGRTTYADSVKGRFTISRDNAKNTVYLQMNSLKPEDTAVYYCNADTGLGSLDFDKRDYWGQGTQVTVSS | low polyreactivity
16 | HVQLVESGGGLVQARGSLRLSCAASGSTFYAYDRGWYRQAPGKERELVAAISSTGGRTDYADSVKGRFTISRDNSKNTVYLQMNSLKPEDTAVYYCAARQLSSHYDYWGQGTQGTVSS | low polyreactivity

Row | Sequence | polyreactivity (PSR sort gate)
17 | HVQLVESGRGLFQAGGSLRLSCAASGFIFQYYAMGWYRQAPGKERELVAAISFGGSTYYADSVKGRFTISRDNAKNTVYLQMNSLKPEDTAVYYCAGDYYSWYGYDYWGQCTQVTVSS | low polyreactivity
18 | HVQLVESVGGLVQAGGSLRLSCAASGSTFFYNAMAWYRQAPGKERELVAAITVTGNSTYYADSVKGRFTISRDNAKNTVYLQMNSLKPEDTAVYYCNTSLKRRRLRFNYWGQGTQVTVSS | low polyreactivity
19 | HVQLVETGGGLVQAGGSLRLSCAASGRTFDSYTMGWYRQAPGKERELVADITFTGGSTYYADSVKGRFTISRDNAKNTVYLQMNSLKPEATAVYYCNADREYKWYFRYDYWGQGTQVTVSS | low polyreactivity
20 | HVQLVQSGGGLVQAGGSLRLSCAASVYTFVYYAIGWYRQATGKERELVAAITSRAGRTYYADSVKGRFTISRDNAKNTVYLQMNSLKPEDTAVYYCNAASTKITRFDYWGQGTQVTVSS | high polyreactivity
21 | IILPGGRILLSCAASGRTFSGYGLGWYRQAPVKERELIADITSGGSTYYADSVKGRFTISRDNAKNTVYLQMNILIPVDTAVYYCAAERQIRSFWSSRTYEFGYWGQGTQVNVSS | low polyreactivity
22 | KGQLVESGGGLVQAGGSLRLSCAASGSIFGENAMGWYRQAPGKERELVAAITSSGSTYYADSVKGRFTISRANAKNTVYLQMNSLKPEDTAVYYCAKVSVLRMDYWGQGTQVTVSS | low polyreactivity
23 | KLQLVESGGGLVQAGGSLRLSCADSGRIFQGNAMGWYRQAPGKERELVAAITYSGRSTFYADSVKGRFTISRDNAKNTVYLQMNRLKPEDTAFYYCAARQYWTTDLPFQRYYYWGQGTQVTVSS | low polyreactivity
24 | KVLLVESGGGLVQAGGSLRLSCAASGSIFHGNAMGWYRQAPGKERELVATISSGGSTYYADSVKGLFTISRDNAKNTVDLQMNSLKPEDTAVYYCAAERFWPYKSYYWGQGTQVTVSS | low polyreactivity
25 | KVQIVESGGGLVQAGGSLRLSCAASGRTFVVNGMGRYRQAPGKDRELVAAINTSGGSTHYADSVKGRITISRDNAKNTVYLQMNILKPEDTAVYYCAAVGYWRDYSGYWDYYYIYDYWGQGTQVNVSS | low polyreactivity
26 | KVQLEESGGGLVQSGGILRLSCAASGSTLWSNTMGWYRQEQGKERELVDAISSGGGSTYADSVKGRFTISRDNAKNTVYLQMNSLKPEDTAVFYCAASAYYYRHSSWHRSDYWGQGTQVTVSS | high polyreactivity
27 | KVQLVESGGGLVQAGGSLLLSCAASVSNYTLNAMGWYRQAPGKERVLVAAISLSGGSTYYADSVKGRFTISRDNAKNTVYLQMNSLKPEDTAVYYCNTPPSRYVRYGIYRYDYWGQGTQVTVSS | high polyreactivity
28 | KVQLVESGGGLVQAGGSLRISCAASGGIFAYNAMGWYRQAPGKEMELVASITSGGNTYYADSVKGRFTISRDNAKNTFYLQMNSLKPEDTAVYYCNARFYRSWRRYSREPGYNYWGQGTQVTVSS | high polyreactivity
29 | KVQLVESGGGLVQAGGSLRISCAASGIIFLGYAMGWYRQAPGKERELVAGISSRGGSTYYADSVKGRFTISRDNAKNTVYLQMNSLKPADSAVYYCAAVSRGSGRDYWGQGTQVTVSS | high polyreactivity
30 | KVQLVESGGGLVQAGGSLRISCAASGITFNPYAMGWYRQAAGKERELVAAISRRGGSTNYADSVKGRFTISRDNAKNTVYLQMNSLKPEDTAVYDCNRDYPIGYRHDPVYYWGQGTQVTVSS | high polyreactivity
31 | KVQLVESGGGLVQAGGSLRLSCAASGFIFYRNTMGWYRQAPGKEREFVAAIRWRGGSTYYADSVKGRFTISRDNAKNTVYLQMNSLKPEDTAVYYCAADTRPGYSGFEYWGQGTQVTVSS | high polyreactivity
